# According to patent US20220056091A1:
# Target: His-tagged human IL-18BP (human) (UniProt O95998)
# Test: alphaLISA of free IL-18BP
# Sequence of His-tagged human IL-18BP (human) (O95998 31-194): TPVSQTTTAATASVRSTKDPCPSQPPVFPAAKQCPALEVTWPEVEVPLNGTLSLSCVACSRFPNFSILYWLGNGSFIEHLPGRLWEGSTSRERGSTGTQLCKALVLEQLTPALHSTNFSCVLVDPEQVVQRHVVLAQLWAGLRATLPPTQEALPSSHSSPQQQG
# Sequence of IL-18 polypeptide of SEQ ID NO: 1 (native sequence, human IL-18 37-193) (Q14116 37-193): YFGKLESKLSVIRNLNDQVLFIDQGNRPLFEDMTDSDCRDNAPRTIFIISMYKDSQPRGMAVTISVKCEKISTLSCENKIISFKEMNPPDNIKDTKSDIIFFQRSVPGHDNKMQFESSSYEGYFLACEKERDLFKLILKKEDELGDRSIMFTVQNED
row,Substance,Kd
1,"Modified IL-18 polypeptide of SEQ ID NO: 70 (E6K, K53A, C38S, C76S, C127S) (from UniProt Q14116 37-193) (ligand)",436 nM
2,"IL-18 polypeptide of SEQ ID NO: 1 (native sequence, human IL-18 37-193) (from UniProt Q14116 37-193) (ligand)",0.67 nM
3,"Modified IL-18 polypeptide of SEQ ID NO: 10 (E06K, K53A, S55A, T63A) (from UniProt Q14116 37-193) (ligand)",822 nM
4,"Modified IL-18 polypeptide of SEQ ID NO: 21 (K53A, T63A) (from UniProt Q14116 37-193) (ligand)",198 nM
5,"Modified IL-18 polypeptide of SEQ ID NO: 7 (E06K, K53A) (from UniProt Q14116 37-193) (ligand)",130 nM
6,"Modified IL-18 polypeptide of SEQ ID NO: 15 (C38S, C68S, C76S, C127S) (from UniProt Q14116 37-193) (ligand)",0.03 nM
7,"Modified IL-18 polypeptide of SEQ ID NO: 20 (E06K, T63A) (from UniProt Q14116 37-193) (ligand)",0.83 nM
8,"Modified IL-18 polypeptide of SEQ ID NO: 9 (K53A, S55A) (from UniProt Q14116 37-193) (ligand)",500 nM
9,"Modified IL-18 polypeptide of SEQ ID NO: 3 (Y01G, F02A, E06K, M51G, K53A, D54A, S55A, T63A) (from UniProt Q14116 37-193) (ligand)",969 nM
10,"Modified IL-18 polypeptide of SEQ ID NO: 8 (E06K, S55A) (from UniProt Q14116 37-193) (ligand)",12.3 nM
11,Modified IL-18 polypeptide of SEQ ID NO: 19 (T63A) (from UniProt Q14116 37-193) (ligand),2.59 nM
12,Modified IL-18 polypeptide of SEQ ID NO: 6 (E06K) (from UniProt Q14116 37-193) (ligand),0.13 nM
13,"Modified IL-18 polypeptide of SEQ ID NO: 23 (K53A, T63A, C38S, C68S, C76S, C127S, K70C) (from UniProt Q14116 37-193) (ligand)",913 nM
14,"Modified IL-18 polypeptide of SEQ ID NO: 71 (E6K, C38S, K53A) (from UniProt Q14116 37-193) (ligand)",50.2 nM
15,"Modified IL-18 polypeptide of SEQ ID NO: 22 (E06K, K53A, C38S, C68S, C76S, C127S, K70C) (from UniProt Q14116 37-193) (ligand)",446 nM
16,Modified IL-18 polypeptide of SEQ ID NO: 5 (S55A) (from UniProt Q14116 37-193) (ligand),10.7 nM
17,Modified IL-18 polypeptide of SEQ ID NO: 4 (K53A) (from UniProt Q14116 37-193) (ligand),514 nM
18,"Modified IL-18 polypeptide of SEQ ID NO: 16 (C38S, C68S, C76S, C127S, K70C) (from UniProt Q14116 37-193) (ligand)",0.21 nM
19,"Modified IL-18 polypeptide of SEQ ID NO: 18 (E06K, K53A, T63A) (from UniProt Q14116 37-193) (ligand)",340 nM
20,"Modified IL-18 polypeptide of SEQ ID NO: 71 with a 30 kDa PEG attached at residue C68 (E6K, C38S, K53A, C68-30kDPEG) (from UniProt Q14116 37-193) (ligand)",59.1 nM
